Columns and labels:
[1] = target: human EGFR (cell surface) (human) (UniProt P00533); assay: FACS competition on A431 cells, blocked ligand EGF-biotin, MFI is the EGF-biotin signal; upper panel and table; IC50 cell reads N/A, no inhibition
[2] = target: mouse EGFR (cell surface) (mouse) (UniProt Q01279); assay: FACS binding to W562-CHO-K1.mPro1.F3 cells (mouse EGFR), lower panel and table; EC50 cell reads N/A, curve flat
[3] = target: Macaca fascicularis EGFR (cell surface) (Macaca fascicularis); assay: FACS binding to W562.CHOK1.cPro1.H6 cells (monkey EGFR), upper panel and table; curve flat
[4] = target: human EGFR (cell surface) (human) (UniProt P00533); assay: FACS binding to A431 cells, upper panel and table; EC50 cell reads N/A, curve flat
[5] = target: human EGFR (cell surface) (human) (UniProt P00533); assay: FACS binding to A431 cells, lower panel and table; the curve is flat at the baseline, so this is the fit of a flat curve (see non_binding)
[6] = target: human EGFR (cell surface) (human) (UniProt P00533); assay: FACS competition on A431 cells, blocked ligand EGF-biotin, MFI is the EGF-biotin signal; lower panel and table; IC50 cell reads N/A, no inhibition
[7] = target: Macaca fascicularis EGFR (cell surface) (Macaca fascicularis); assay: FACS binding to W562-CHO-K1.cPro1.H6 cells (monkey EGFR), lower panel and table; EC50 cell reads N/A, curve flat
[8] = target: human EGFR (cell surface) (human) (UniProt P00533); assay: FACS binding to A431 cells, lower panel and table; curve flat
[9] = target: mouse EGFR (cell surface) (mouse) (UniProt Q01279); assay: FACS binding to mouse EGFR cells; the table head prints W562.CHOK1.cPro1.H6; EC50 cell reads N/A, curve flat
[10] = target: Macaca fascicularis EGFR (cell surface) (Macaca fascicularis); assay: FACS binding to W562.CHOK1.cPro1.H6 cells (monkey EGFR), upper panel and table; the curve is flat at the baseline, so this is the fit of a flat curve (see non_binding)

Isotype (antibody)
Bottom MFI [1]: 4680 MFI | TOP MFI [2]: 85.6 MFI | Top MFI [3]: 35.6 MFI | Top MFI [4]: 35.1 MFI | EC50 [5]: 0.01 nM | Bottom MFI [6]: 3890 MFI | TOP MFI [7]: 54.9 MFI | TOP MFI [8]: 58.5 MFI | Top MFI [9]: 32.3 MFI | EC50 [10]: 0.07 nM
